Test results: the supplement of paper PMC9170038

Test system: K4 kissing-loop RNA reporter
Assay: apparent KD of K4 kissing-loop reporter; higher = weaker reporter binding
Settings: Eterna round: R107
Experimental: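 RNA-MaP round R107: designed RNA switches with theophylline, tryptophan, arginine or FMN aptamers are transcribed on-chip within common flanks. They are titrated with a labelled K4 kissing-loop RNA reporter in RNA-MaP buffer (100 mM Tris pH 7.5, 80 mM KCl, 4 mM MgCl2), without ligand or with the indicated ligand. Median apparent KD per design.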

[1] = input ligand: theophylline 20 uM
[2] = input ligand: tryptophan 2.4 mM
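Note: bound reporter read as fluorescence of individual clusters on recovered sequencing chips by microscopy, with normalized cluster intensities fitted with a binding model.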

Row | Sequence | apparent KD of K4 kissing-loop reporter (input ligand: FMN 200 uM) [µM] | apparent KD of K4 kissing-loop reporter (input ligand: arginine 13.2 mM) [µM] | apparent KD of K4 kissing-loop reporter (input ligand: none) [µM] | apparent KD of K4 kissing-loop reporter [1] [µM] | apparent KD of K4 kissing-loop reporter [2] [µM]
1 | GCAAAGGCCCAUCGGAAUUCGAGACCAGCACGAGGACCGGUACGGCCGCCACUCGUGCAGUGAUGUUGCACGAAUGGGAAACCGC [Oninanso] | 0.112 | 0.103 | 0.125 | 0.118 | 0.147
2 | GCAACAUUGGCAGGAUAUCAUUCUGAGUGAUGUUCAGGGUUCAGCUAACGAAAGUUAGUUGUACCAUGAGAAGGGCUAAUGUUGC [Omei KL FMN B SS A v1] | 0.332 | 0.886 | 1.12 | 1.02 | 1.08
3 | GCAACAUUGGCAGGAUAUCCUUCUCAGUGAUGUUGAGGGUUCAGCUAACGAAAGUUAGUUGUACCGGGAGAAGGGCUAAUGUUGC [Omei KL FMN B SS A v8] | 0.288 | 0.65 | 1.1 | 0.913 | 1.24
4 | GCAGUCCGGACGGCCGCCACUAUCCGUAAAGUGAUGUUUUACGAACAAUCGAUUGCAUAUCAGAAUAGGACCGGGUCCGUCGACC [theeternabot_sameState_KL_Trp_B_15] | 0.228 | 0.185 | 0.212 | 0.17 | 0.201
5 | GCAGUGAUGUUGCGGAUGUACAGUGGCGUGCGAGGACCGGUACGGCCGCCACUCGUACAGAACAAGCUAAUACAUCGAUAGGUGA [whbob_SS_Tryp_A_m1] | 0.493 | 0.294 | 0.556 | 0.516 | 0.355
6 | GCAUCAUGCUACGAUACCAGAAGUUCCCUUUAGUGUAGUGAUGUUGCAGAUAUUGCUUACUUCCCUUGGCAGCGUUUGACGGGUA [theeternabot_sameState_KL_Theo_B_35] | 0.256 | 0.205 | 0.22 | 0.335 | 0.155
7 | GCAUCCAUGGCAGGAUAUAGGUUCGUGGAGUGAUGUUCCAUAGCCCGAGUGAUGUUCGUUAUCCGCCUAGAAGGGCCGUGGAUGC [whbob_Ex_FMNB__2th214] | 0.248 | 0.184 | 0.235 | 0.192 | 0.212
8 | GCCAGUGAUGUUGGCAUUUCGAGCCAUGAAGGAGCGCACGGAAGUGCAGGUAGGUCGCAUGGUACUUAGGAUAUUAUCCUAAGUA [Antearxe] | 0.18 | 0.169 | 0.224 | 0.178 | 0.144
9 | GCCAGUGCGCGAAGGAGCGCCGUGACAGGUUACUGCCUUGGGCAGUGAUGUUGCUCAAUCUGGCAGGUAGGUCGCGUGCACUGGC | 0.212 | 0.184 | 0.166 | 0.204 | 0.197
10 | GCCCGGGCGAGUGAUGUUCGCCCACGUGAUACCAGUGCCAUCCAACACCCUUGGCAGCACGCGGGCAGUGAUGUUGCCCUUGUAU [Exclusion Theophylline A GF 4] | 0.115 | 0.11 | 0.122 | 0.138 | 0.111
11 | GCCGCAAGGAUAGCAGCAAUAGGCGCUCGCUAGGAUAUCUGGAAACAGAGAAGGAGCUGGAGUGAUGUUUUACCUCCUAAAAUUA | 0.517 | 1.9 | 0.682 | 0.21 | 1.07
12 | GCCGUACGCAUGGAUACCAGAGAUGUUAAUCUCGAUGCCAGUGAUGUUGGCUUUAGCUAUCUCCCUUGGCAGCCAUGCGUACGGC | 1.05 | 0.608 | 0.909 | 0.566 | 1
13 | GCCGUACGCAUGGAUACCAGCCGACCUGAUGUUAAGCUGGUGCCGUAGUGAUGUUACGAAGGCCCUUGGCAGCCAUGCGUACGGC | 0.211 | 0.147 | 0.209 | 0.176 | 0.196
14 | GCCGUACGCAUGGAUACCAGUUGCGAAGUGAUGUUUCGGGCGAUCAAAGGAUCGCCAGACAACCCUUGGCAGCCAUGCGUACGGC | 0.757 | 0.506 | 1.6 | 0.769 | 0.674
15 | GCCGUAGAUUGAAGGAGCGCCGCACAUGUCCCGCUUAGUGUAGUGAUGUUACAGUGUCAGCGGCAGGUAGGUCGCAAUCUACGGC | 0.0858 | 0.183 | 0.225 | 0.123 | 0.218
16 | GCCGUAGAUUGAAGGAGCGCUAGUCUACGAUGACACACAGUGAUGUUGUGCGUGAUUUCAUAGCAGGUAGGUCGCAAUCUACGGC | 0.23 | 0.195 | 0.214 | 0.186 | 0.183
17 | GCCGUAGAUUGAAGGAGCGGACUUAUAGGUCUUAAGGAGUGAUGUUCCUGACACUCGGCGGUCCAGGUAGGUCGCAAUCUACGGC | 0.296 | 0.269 | 0.32 | 0.252 | 0.272

Row | Sequence | apparent KD of K4 kissing-loop reporter (input ligand: FMN 200 uM) [µM] | apparent KD of K4 kissing-loop reporter (input ligand: arginine 13.2 mM) [µM] | apparent KD of K4 kissing-loop reporter (input ligand: none) [µM] | apparent KD of K4 kissing-loop reporter [1] [µM] | apparent KD of K4 kissing-loop reporter [2] [µM]
18 | GCCGUAGAUUGAAGGAGCGUGGACCUAUCGCUUGAACAGUGAUGUUGUUUAUCUAGGGAGCCGCAGGUAGGUCGCAAUCUACGGC | 0.47 | 0.355 | 0.478 | 0.37 | 0.386
19 | GCCGUAGAUUGAAGGAGCGUUCUUCAGCAUACUUGCAGUGAUGUUGCAUUUUACAUGUAAGAACAGGUAGGUCGCAAUCUACGGC |  | 0.119 | 0.412 | 0.04 | 0.235
20 | GCCUAGCAGCGAAGGAGCGCCAGGAGAAGAAAUGGAGAGAGUUGAGUGAUGUUCAAAUGGUGGCAGGUAGGUCGCGCUGCUAGGC [#08 K4 Arginine B Same State] | 0.559 | 0.261 | 0.432 | 0.444 | 0.377
21 | GCGCAUGUUAAAGGAUAUAGCAGGUGAUACAAGAAAGUGAGUGAUGUUUAUGUAGAUGAUGAUAUGUUAGAAGGUUAACAAACGC [abcdefghijklmno] | 0.922 | 0.624 | 0.809 | 0.867 | 0.564
22 | GCGCGUCAUGUCAGCGGUGACACUGUCGAUACCAGCGCCGAAAGGCGCCCUUGGCAGCGACGUGCUGGAGUGAUGUUCCAGCGUG [#2 Exclusion - Theophylline A Attempt #25 (HarryS)] | 0.197 | 0.16 | 0.182 | 0.203 | 0.184
23 | GCGCGUCAUGUCAGCGGUGACACUGUCGAUACCAGUGCCGUAAGGCGCCCUUGGCAGCGACGUGCUGGAGUGAUGUUCCAGCGUU [#2 Exclusion - Theophylline A Attempt #31 (HarryS)] | 0.143 | 0.132 | 0.153 | 0.154 | 0.146
24 | GCGGCGGGCCAAGGAUAUAUAUUGGAGUGAUGUUGUUCAUUUAUUUGAGCUAGUGAUGUUGGUCAGAUAGAAGGUGGCCCGCCGC [whbob_Ex_FMNB__2th216] | 0.0763 | 0.0301 | 0.0511 | 0.0462 | 0.0464
25 | GCGGGCCAGACGGCCGCCACUCCGGGCAGUGAUGUUGCGAAUCUUCUACUAGAGUGAUGUUCUACGAGGACCGGGUCGGAACGCG [Exclusion Tryptophan B Gf 14] | 0.458 | 0.384 | 0.569 | 0.502 | 0.289
26 | GCGUCUGUCGGAAGGAGCGCACUAUGGAGUGAUGUUCCAUGACCGCACAGCUUGCGGUCAGUGCAGGUAGGUCGCCGAUAGCGUU [Diestera] | 0.161 | 0.157 | 0.154 | 0.191 | 0.144
27 | GCUAUGGUAGGAAGGAGCGCGGACGAAAUUUAUCGAGUGAUGUUCGAAUAAUUAAAUAAAACGCAGGUAGGUCGCCUACUAUAGC [Arginine B K4 26] | 0.101 | 0.0975 | 0.0975 | 0.0955 | 0.0757
28 | GCUAUGGUAGGAAGGAGCGCUACCUUGUUUUUACGAGUGAUGUUCGGAAGCAGGGUGUUAAAGCAGGUAGGUCGCCUACUAUAGC [Arginine B K4 21] | 0.192 | 0.178 | 0.167 | 0.205 | 0.176
29 | GCUAUGGUAGGAAGGAGCGCUGCCUUGUUUUUACGAGUGAUGUUCGGAAGCAGGGUGUUAAAGCAGGUAGGUCGCCUACUAUAGC [Arginine B K4 23] | 0.191 | 0.121 | 0.16 | 0.172 | 0.155
30 | GCUAUGGUAGGAAGGAGCGCUUAUUUAUUUUUAAGAGUGAUGUUCGAUAGUAGAUAUUUAAAGCAGGUAGGUCGCCUACUAUAGC [Arginine B K4 13] | 0.122 | 0.159 | 0.108 | 0.136 | 0.0715
31 | GGACCUCAGUGAUGUUGAGGUAACACUGAUACCAGCGACUUAAUUCGCCCUUGGCAGCAGUCCACCGAGGUAUCUGAUUAGGUCU [#23 K4 Theophylline A Exclusion] | 0.211 | 0.22 | 0.216 | 0.287 | 0.19
32 | GGAGAGGUCUUGUUUGGAUGUGAUUAAUGGCGAGGACCGGUACGGCCGCCACUCGGGUGAUGUUAGUGAUGUUGAUGUAGUGAUG [uyumullin] | 0.15 | 0.103 | 0.114 | 0.206 | 0.109
33 | GGAGCAGUGAUGUUGCUUGUAAUGCAUUCAGAGGAUAUUCGUUUGGGAAGAAGGCUGAAUCGUUCUUCGAGUGAUGUUCGAGGAU [Same State FMN A GF 16] | 0.154 | 0.154 | 0.156 | 0.148 | 0.138
